The values that follow come from the RNAGym collection of RNA variant scans (doi:10.1101/gr.219683.116).

The chains are these.
B1: mRNA-splicing (parent)
chain: AGUUGCUGCUGGGAGCUCCAGCACAGUGAAAUGGACAGAAGGGCAGAGCAA

The variants in this data set derive from B1. Put plainly: exon inclusion enrichment index; higher = more inclusion; WT1 exon 5 minigene, HEK293.
AGUUCUUCUCGGGAGCUCCAGCACAGUGAAAUGCACAGAAGGGCAGAGCAA: the “exon inclusion enrichment index” value was 0.84.
The same measure for AGUUCUUCUCGGGAGCUCCAGCACAGUGAAAUGGACAGAAGGGCAGGACAA: 1.24; for AGUUAGGGAUUGGAGCUCCAGCACAGUGAAAUGGACAGAAGGGCAGAGCAA: 0.00542.
As for AGUUCACACAGGGAGCUCCAGCACAGACAAAUGGACAGAAGGGCAGAGCAA, the figure is 0.152.
As for AGUUAGGGAUGGGAGCUCCAGCCCAGUGAAAUGGACAGAAGGGCAGAGCAA, the figure is 0.00491.
Consider AGUUAGGGAUGGGAGCUCCAGCCGAGUGAAAUGGACAGAAGGGCAGAGCAA, for which the “exon inclusion enrichment index” value was found to be 0.0142.
The same measure for AGUUCUUCUCGGGAGCUCCAGCACAAUGAAAUGGACAGAAGGGCAGAGCAA: 2.49; for AGUUGAAGAAGGGAGCUCCAGCACAGUGAAAUGCGCAGAAGGGCAGAGCAA: 0.484.
For AGUUACAACCGGGAGCUCCAGCACAGUGAAAUGGACAGAAGGGCAGAGCAA, the “exon inclusion enrichment index” value is 1.72.
As to AGUUUGCACAGGGAGCUCCAGCACAGUGAAAUGGACAGAAGGGCAGAGCAA, the “exon inclusion enrichment index” value was 0.1.
As for AGUUGAAGAAGGGAGCUCCAGCACAGUGCAAUGGACAGAAGGGCAGAGCAA, the figure is 0.513; as for AGUUUCUUUUGGGAGCUCCAGCACAGUGAAAUGGGUAGAAGGGCAGAGCAA, 0.0033; as for AGUUGCUGCUGGGAGCUCCAGCACAGUGAAACUGACAGAAGGGCAGAGCAA, 0.0526.
As for AACUGCUGCUGGGAGCUCCAGCACAGUGAAAUGGACAGAAGGGCAGAGCAA, the figure is 0.0113; as for AGUUCGCGCCGGGAGCUCCAGCACAGUGAAAUGGACACCAGGGCAGAGCAA, 2.86; as for AGUUGAAGAAGGGAGCUCCAACACAGUGAAAUGGACAGAAGGGCAGAGCAA, 0.506.
As for AGUUGACGACGGGAGCUGAAGCACAGUGAAAUGGACAGAAGGGCAGAGCAA, the figure is 3.84; as for AGUUGCUGCUGGGAGCUCCAUCACAGUGAAAUGGACAGAAGGGCAGAGCAA, 1.52.
AGUGAACGACGGGAGCUCCAGCACAGUGAAAUGGACAGAAGGGCAGAGCAA: the “exon inclusion enrichment index” value worked out at 3.42.
As for AGUUCUUCUCGGCUGCUCCAGCACAGUGAAAUGGACAGAAGGGCAGAGCAA, the figure is 1.35; as for AGUUCUUCUCGGGAGCUCCAGCACAGUGAAUAGGACAGAAGGGCAGAGCAA, 0.179.
The same measure for AGUUCUUCUCGGGAGCUCCAGCACAGUGAAUCGGACAGAAGGGCAGAGCAA: 2.61; for AGUUAGGGACUGGAGCUCCAGCACAGUGAAAUGGACAGAAGGGCAGAGCAA: 0.0108.
Take AGUUGACGACGGGAGCUCCAGCACAGUGAAAUACACAGAAGGGCAGAGCAA: the “exon inclusion enrichment index” value was 1.06.
As for AGUUAUAUAUGGGAGCUCAAGCACAGUGAAAUGGACAGAAGGGCAGAGCAA, the figure is 0.0415; as for AGUUUCUUUUGGGAGCUCCAGAUCAGUGAAAUGGACAGAAGGGCAGAGCAA, 0.0576; as for AGUUCACACAGGGAGCUCCAGCACAGUGAAAUGGACAGAACCGCAGAGCAA, 0.654.
The same measure for AGUUGACGACGGGAAAUCCAGCACAGUGAAAUGGACAGAAGGGCAGAGCAA: 2.34; for AGUUAGGAGUGGGAGCUCCAGCACAGUGAAAUGGACAGAAGGGCAGAGCAA: 0.0105.
The same measure for AGUUCUUCUCGGGAGCUCCAGCACAAAGAAAUGGACAGAAGGGCAGAGCAA: 1.96; for AGUUAGGGAUGGGAAGUCCAGCACAGUGAAAUGGACAGAAGGGCAGAGCAA: 0.00097; for AGUUUAGUUUGGGAGCUCCAGCACAGUGAAAUGGACAGAAGGGCAGAGCAA: 0.013.
For the variant AGUUACCACCGGGAGCUCCAGCACAGUGAAAUGGACAGGAGGGCAGAGCAA, the “exon inclusion enrichment index” value was 1.33.
The same measure for AGUUGCUGCUGGGUCCUCCAGCACAGUGAAAUGGACAGAAGGGCAGAGCAA: 0.0264; for AGUUCUUCUCGGGAGCUCCAGCACAGUGAAAUGGACAGAAGGGCAGACCAA: 2.43.
Take AGUUGACGACGGGAGCUCCAGCACAGUGAAAUGGACCUAAGGGCAGAGCAA: the “exon inclusion enrichment index” value was found to be 2.3.
As for AGUUUCUUUUGGGAGUGCCAGCACAGUGAAAUGGACAGAAGGGCAGAGCAA, the figure is 0.0101; as for AGUUAGGGAUGGGAGCUCCAGCACAGUGAAAUGAGCAGAAGGGCAGAGCAA, 0.00114.
As for AGUUGACGACGGGAGCUCCAGCACAGUGGAAUGGACAGAAGGGCAGAGCAA, the figure is 3.29.
Take AGUUCGCGCCGGGAGCUCCAGGACAGUGAAAUGGACAGAAGGGCAGAGCAA: the “exon inclusion enrichment index” value turned out to be 3.75.
As for AGUUACCACCGGGAGCUCCAGCACAGUACAAUGGACAGAAGGGCAGAGCAA, the figure is 1.44.
Regarding AGUUCGCGCCGGGAGCUCCAGCAUCGUGAAAUGGACAGAAGGGCAGAGCAA, the “exon inclusion enrichment index” value was 4.56.
As for AGUUAGGGAUGGGAGCUCCAGCACAGUGAAAUGGACAGAAGGGCAGACCAA, the “exon inclusion enrichment index” value was found to be 0.00243.
As for AGUUACCACCGGGAGCUCCAGUACAGUGAAAUGGACAGAAGGGCAGAGCAA, the “exon inclusion enrichment index” value came out at 2.11.
As for ACAUAGGGAUGGGAGCUCCAGCACAGUGAAAUGGACAGAAGGGCAGAGCAA, the figure is 0.0159.
The same measure for AGUUAUAUAUGGGAGCUCCAGCACAGUGAAAUGGACAGAAGGGCAAAGCAA: 0.0879; for AGUUGACGACGGGAGCUCCAGCAUCGUGAAAUGGACAGAAGGGCAGAGCAA: 4.21; for AGUUAUACGUGGGAGCUCCAGCACAGUGAAAUGGACAGAAGGGCAGAGCAA: 0.736.
As for AGUUAUAUAUGGGAGCUCCAGCACAGUGAAAUGGACAGAACAGCAGAGCAA, the figure is 0.139; as for AGUUAGGGAUGGGAGCUCCAGCACAGUGAAAUGGACAUGAGGGCAGAGCAA, 0.00105; as for AGUUGAAGAAGGGAGCUCCAGCACAGUGAAAUGGACAGAAGGGCAUAGCAA, 0.388.
